Assay results published in patent US20220048967A1 (published 2022).
Numbered stars: 1 amine (or outer) side, 2 acyl side, 3 side chain; on linkers, the order of the positions; unused ones are H or OH. Square brackets hold non-standard residues; d marks the D form. Side chains are listed from the residue outwards. Ends that are not written are not given here. * marks the point of attachment. C20 diacid = O=C(O)CCCCCCCCCCCCCCCCCCC(=O)*; γGlu = O=C(O)[C@H](CCC(=O)[*:2])N[*:1]; AEEA = NCCOCCOCC(=O)O; Aib = CC(C)(N)C(=O)O

T1: human gastric inhibitory peptide receptor (GIPR) (human, UniProt P48546 22-466)
T1 sequence (looked up): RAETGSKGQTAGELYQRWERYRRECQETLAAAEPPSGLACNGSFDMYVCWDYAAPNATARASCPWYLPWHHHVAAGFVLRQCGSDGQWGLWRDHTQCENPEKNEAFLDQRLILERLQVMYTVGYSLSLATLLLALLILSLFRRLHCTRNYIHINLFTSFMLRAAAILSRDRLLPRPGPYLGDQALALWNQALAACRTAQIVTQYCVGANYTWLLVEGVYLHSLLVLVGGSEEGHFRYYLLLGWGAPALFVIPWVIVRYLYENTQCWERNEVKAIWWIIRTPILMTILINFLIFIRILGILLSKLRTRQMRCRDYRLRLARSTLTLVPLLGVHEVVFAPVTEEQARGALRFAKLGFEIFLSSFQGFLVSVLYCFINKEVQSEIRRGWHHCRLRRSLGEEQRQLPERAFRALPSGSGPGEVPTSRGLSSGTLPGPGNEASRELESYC


Experiments:
[1] = target: human GLP-1 receptor (GLP-1R) (human, UniProt P43220 24-463); experiment: cell-based or functional assay
[2] = target: T1, human gastric inhibitory peptide …; experiment: cell-based or functional assay

Row | Binder | hGLP1R cAMP EC50 ratio [1] | hGLP1R cAMP Rel EC50 [1] [nM] | hGIPR cAMP EC50 ratio [2] | hGIPR cAMP Rel EC50 [2] [nM]
1 | Y[Aib]EGTFTSDYSILLDEK([AEEA-AEEA-γGlu-C20 diacid])AQKAFIEYLIEGGPSSGAPPPS-NH2 (N-terminus assumed; SMILES CC[C@H](C)[C@H](NC(=O)[C@H](CC(C)C)NC(=O)[C@H](Cc1ccc(O)cc1)NC(=O)[C@H](CCC(=O)O)NC(=O)[C@@H](NC(=O)[C@H](Cc1ccccc1)NC(=O)[C@H](C)NC(=O)[C@H](CCCCN)NC(=O)[C@H](CCC(N)=O)NC(=O)[C@H](C)NC(=O)[C@H](CCCCNC(=O)COCCOCCNC(=O)COCCOCCNC(=O)CC[C@H](NC(=O)CCCCCCCCCCCCCCCCCCC(=O)O)C(=O)O)NC(=O)[C@H](CCC(=O)O)NC(=O)[C@H](CC(=O)O)NC(=O)[C@H](CC(C)C)NC(=O)[C@H](CC(C)C)NC(=O)[C@@H](NC(=O)[C@H](CO)NC(=O)[C@H](Cc1ccc(O)cc1)NC(=O)[C@H](CC(=O)O)NC(=O)[C@H](CO)NC(=O)[C@@H](NC(=O)[C@H](Cc1ccccc1)NC(=O)[C@@H](NC(=O)CNC(=O)[C@H](CCC(=O)O)NC(=O)C(C)(C)NC(=O)[C@@H](N)Cc1ccc(O)cc1)[C@@H](C)O)[C@@H](C)O)[C@@H](C)CC)[C@@H](C)CC)C(=O)N[C@@H](CCC(=O)O)C(=O)NCC(=O)NCC(=O)N1CCC[C@H]1C(=O)N[C@@H](CO)C(=O)N[C@@H](CO)C(=O)NCC(=O)N[C@@H](C)C(=O)N1CCC[C@H]1C(=O)N1CCC[C@H]1C(=O)N1CCC[C@H]1C(=O)N[C@@H](CO)C(N)=O) [Example 258] | 0.401 | 0.174 | 0.0616 | 2.43
2 | YXEGTFTSDYSILLDKKAQAAFIEYLIEGGPSSGAPPPS (Aib2, (2-[2-(2-Amino-ethoxy)-ethoxy]-acetyl)2-(γ-Glu)-CO-(CH2)18-CO2H on K17, C-terminal NH2) [Example 253] | 0.638 | 0.109 | 0.684 | 0.219
3 | YXEGTFTSDYSILLDKKAQRAFIEYLIEGGPSSGAPPPS (Aib2, (2-[2-(2-Amino-ethoxy)-ethoxy]-acetyl)2-(γ-Glu)-CO-(CH2)18-CO2H on K17, C-terminal NH2) [Example 257] | 0.895 | 0.0779 | 0.316 | 0.474
4 | YXEGTFTSDYSILLDKKAQHAFIEYLIEGGPSSGAPPPS (Aib2, (2-[2-(2-Amino-ethoxy)-ethoxy]-acetyl)2-(γ-Glu)-CO-(CH2)18-CO2H on K17, C-terminal NH2) [Example 255] | 1.71 | 0.0407 | 1.47 | 0.102
5 | YXEGTFTSDYSILLDKKAQKAFIEYLIEGGPSSGAPPPS (Aib2, (2-[2-(2-Amino-ethoxy)-ethoxy]-acetyl)2-(γ-Glu)-CO-(CH2)18-CO2H on K17, C-terminal NH2) [Example 256] | 1.38 | 0.0506 | 0.233 | 0.643
6 | YXEGTFTSDYSILLDKKAQQAFIEYLIEGGPSSGAPPPS (Aib2, (2-[2-(2-Amino-ethoxy)-ethoxy]-acetyl)2-(γ-Glu)-CO-(CH2)18-CO2H on K17, C-terminal NH2) [Example 254] | 1.26 | 0.0553 | 0.695 | 0.215
7 | YXEGTXTSDYSIXLDXKAQXEFIXYLIEGGPSSGAPPPS (Aib2, αMeF(2F)6, Aib13, Orn16, (2-[2-(2-Amino-ethoxy)-ethoxy]-acetyl)2-(γ-Glu)-CO-(CH2)16-CO2H on K17, Aib20, D-Glu24, C-terminal NH2) [Example 247] | 0.614 | 0.0491 | 2.58 | 0.0622
8 | YXEGTXTSDYSILLDXKAQXEFIXYLIEGGPSSGAPPPS (Aib2, αMeF(2F)6, Orn16, (2-[2-(2-Amino-ethoxy)-ethoxy]-acetyl)2-(γ-Glu)-CO-(CH2)16-CO2H on K17, Aib20, D-Glu24, C-terminal NH2) [Example 248] | 0.8 | 0.0428 | 5.08 | 0.0328
9 | YXEGTXTSDYSIXLDXKAQXEFIXYLIEGGPSSGAPPPS (Aib2, αMeF(2F)6, Nle13, Orn16, (2-[2-(2-Amino-ethoxy)-ethoxy]-acetyl)2-(γ-Glu)-CO-(CH2)16-CO2H on K17, Aib20, D-Glu24, C-terminal NH2) [Example 249] | 0.778 | 0.0446 | 3.84 | 0.0437
10 | XXEGTXTSDYSIXLDKKAQXAFIEYLIEGGPSSGAPPPS (not fully specified; D-Tyr1, Aib2, αMeF(2F)6, αMeL13, (2-[2-(2-Amino-ethoxy)-ethoxy]-acetyl)2-(γ-Glu)-CO-(CH2)18-CO2H on K17, Aib20, C-terminal NH2) [Example 336] | – | – | – | 0.0312
11 | YXEGTXTSDYSIXLDXKAQXEFIXYLIEGGPSSGAPPPS (Aib2, αMeF(2F)6, Aib13, Orn16, (2-[2-(2-Amino-ethoxy)-ethoxy]-acetyl)2-(γ-Glu)-CO-(CH2)18-CO2H on K17, Aib20, D-Glu24, C-terminal NH2) [Example 250] | 0.985 | 0.0306 | 4.27 | 0.0376
12 | XXEGTFTSDYSIXLDXKAQXEFVEYLIAGGPSSGAPPPS (D-Tyr1, Aib2, αMeL13, Orn16, (2-[2-(2-Amino-ethoxy)-ethoxy]-acetyl)2-(γ-Glu)-CO-(CH2)18-CO2H on K17, Aib20, C-terminal NH2) [Example 359] | – | – | – | 0.172
13 | Y[Aib]EGTFTSDYSILLDEK([AEEA-AEEA-γGlu-C20 diacid])AQ[Aib]AFIEYLIEGGPSSGAPPPS-NH2 (N-terminus assumed; SMILES CC[C@H](C)[C@H](NC(=O)[C@H](CC(C)C)NC(=O)[C@H](Cc1ccc(O)cc1)NC(=O)[C@H](CCC(=O)O)NC(=O)[C@@H](NC(=O)[C@H](Cc1ccccc1)NC(=O)[C@H](C)NC(=O)C(C)(C)NC(=O)[C@H](CCC(N)=O)NC(=O)[C@H](C)NC(=O)[C@H](CCCCNC(=O)COCCOCCNC(=O)COCCOCCNC(=O)CC[C@H](NC(=O)CCCCCCCCCCCCCCCCCCC(=O)O)C(=O)O)NC(=O)[C@H](CCC(=O)O)NC(=O)[C@H](CC(=O)O)NC(=O)[C@H](CC(C)C)NC(=O)[C@H](CC(C)C)NC(=O)[C@@H](NC(=O)[C@H](CO)NC(=O)[C@H](Cc1ccc(O)cc1)NC(=O)[C@H](CC(=O)O)NC(=O)[C@H](CO)NC(=O)[C@@H](NC(=O)[C@H](Cc1ccccc1)NC(=O)[C@@H](NC(=O)CNC(=O)[C@H](CCC(=O)O)NC(=O)C(C)(C)NC(=O)[C@@H](N)Cc1ccc(O)cc1)[C@@H](C)O)[C@@H](C)O)[C@@H](C)CC)[C@@H](C)CC)C(=O)N[C@@H](CCC(=O)O)C(=O)NCC(=O)NCC(=O)N1CCC[C@H]1C(=O)N[C@@H](CO)C(=O)N[C@@H](CO)C(=O)NCC(=O)N[C@@H](C)C(=O)N1CCC[C@H]1C(=O)N1CCC[C@H]1C(=O)N1CCC[C@H]1C(=O)N[C@@H](CO)C(N)=O) [Example 259] | 0.482 | 0.145 | 0.582 | 0.257
